The source of these data is US20090047211A1.

For experiment [1], the target named is mesothelin (native, on mesothelin-expressing human cells and in mesothelioma tissue) (human) (UniProt Q13421). Nature of the experiment: flow cytometry on H226 cells, MAb 1 µg/ml, PE-labeled anti-mouse IgG. As to conditions: scale: log geometric mean of fluorescence intensity.
The target in experiment [2] is mesothelin-Fc fusion protein (extracellular domain of human mesothelin fused with rabbit IgG Fc) (rabbit; human) (UniProt Q13421). In words: ELISA on plates coated with mesothelin-Fc, HRP-labeled anti-mouse IgG. Background: ELISA stands for enzyme-linked immunosorbent assay.
Experiment [3] shares this target. In words: Biacore, affinity to mesothelin-Fc in solution. (SPR reads the build-up and loss of mass on a sensor chip optically.)
For experiment [4] the target is unchanged. In words: Western blot on SDS-denatured mesothelin-Fc, MAb 1 µg/ml.
Experiment [5] shares this target. In words: ELISA on mesothelin-Fc (summary of Table 1).
The target is the same in experiment [6]. In words: Western blot on mesothelin-Fc (summary of Table 1).
The target is the same in experiment [7]. Nature of the experiment: Western blot on SDS-denatured mesothelin-Fc. Background: A western blot detects proteins with antibodies after separation by electrophoresis.

What is called Kd is the constant that tells how readily two partners part at equilibrium.

Consider MAb K1 (antibody), for which, in experiment [1], the FACS reactivity to H226 cells (log geometric mean of fluorescence intensity) worked out at 2.5. The same molecule gave an amount of MAb that showed OD450 = 0.5 in ELISA in experiment [2] of 1000 ng/mL. Further, the Kd in experiment [3] turned out to be 12 nM. Also, the minimum amount of mesothelin-Fc detected in Western blot in experiment [4] stood at 25 ng.

B1: MAb MN (antibody, IgG2a, V domains shown)
VH: QVQLQQPGAELVKPGASMKLSCKASGYTFTSYWMHWVKQRPGQGLEWIGMIHPNSDNTIYYEKFKSKATLTVDKSSSTAYMQLSSLTSEDSAVYYCAIIITPVVPKFDYWGQGTTLTVSS
VL: DIVMTQSHQFMSTSVGDRVSVTCKASHDVGTSVAWYQQKPGQSPKLLIYWASTRHTGVPDRFTGSGSGTDFTLTISNVQSEDLADYFCQQYSSYPLTFGAGTKLELKR
B1 displayed an FACS reactivity to H226 cells (log geometric mean of fluorescence intensity) in experiment [1] of 3.5. Further, the amount of MAb that showed OD450 = 0.5 in ELISA in experiment [2] came out at 1.1 ng/mL. The fold reactivity in ELISA against the K1 and 5B2 antibodies in experiment [5] is 500 fold. In experiment [3], the Kd was found to be 1 nM. In experiment [6], this molecule gave a fold sensitivity in Western blot against the K1 and 5B2 antibodies of 12 fold. In addition, in experiment [4], the minimum amount of mesothelin-Fc detected in Western blot was determined as 2 ng. In experiment [7], this molecule returned a fold sensitivity in Western blot against MAbs K1 and 5B2 of 10 fold.

B2: MAb MB (antibody, IgG2a, V domains shown)
VH: EVKLVESGGGLVQPGGSLSLSCAASGFTFTDYYMSWVRQPPGRALEWLGFIRGKANGYTTEYSASVKGRFTISRDYSQSILYLHMNALRAEDSATYSCARYYYSNYVWYFDVWGTGTTVTVSS
VL: DIVMTQSQKFMSTSVGDRVSVTCKASQNVGTNVAWYQQKPGLSPKVLIHSASYRFSGVPDRFTGSGSGTDFTLSISNVQSEDLAKYFCQQYNSYPLTFGAGTKLELKR
On to B2, for which the FACS reactivity to H226 cells (log geometric mean of fluorescence intensity) in experiment [1] was found to be 3.3. The amount of MAb that showed OD450 = 0.5 in ELISA in experiment [2] amounted to 1.9 ng/mL. The fold reactivity in ELISA against the K1 and 5B2 antibodies in experiment [5] worked out at 500 fold. The molecule also showed a Kd in experiment [3] of 0.6 nM. In experiment [6], this molecule returned a fold sensitivity in Western blot against the K1 and 5B2 antibodies of 12 fold. For the same molecule, the minimum amount of mesothelin-Fc detected in Western blot in experiment [4] came out at 2 ng. In experiment [7], this molecule showed a fold sensitivity in Western blot against MAbs K1 and 5B2 of 10 fold.
